Experimental data published in patent US12226454B2, “Pharmaceutical compositions and use thereof for relieving anticancer drug resistance and enhancing sensitivity of anticancer drug” (Rise Biopharmaceuticals Inc., priority 2015, dated 2025).

Tests used:
[1] = test system: IL-8, CXCR1 and CXCR2 mRNA in HCC827GR; assay: Real-time PCR gene expression in HCC827GR; type: cell-based, human
Excerpt: (§1) 18 s was used as an internal loading control.
That is to say, RISE P-8 can compete with IL-8 and attenuate its feedback to regulate gene expression of IL-8, CXCR1 and CXCR2 decreased.

[2] = test system: IL-8, CXCR1 and CXCR2 mRNA in PC9GR; assay: Real-time PCR gene expression in PC9GR; type: cell-based, human; settings: 5 μM Gefitinib, 24 hrs
Excerpt: as §1
[…]. […] That is to say, RISE P-8 can compete with IL-8 and attenuate its feedback to regulate gene expression of IL-8, CXCR1 and CXCR2 decreased.

human neutrophil = assay: Modified Boyden chamber neutrophil chemotaxis to CXCL8; type: cell-based; settings: CXCL8 combined with RISE P-8 in lower compartment
Protocol: Please refer to FIG. 5, neutrophil chemotaxis was assessed using modified Boyden chamber microchemotaxis assays. The CXCL8 alone or combined with RISE P-8, were placed in the lower compartment of the Boyden chamber wells and purified neutrophil in the upper compartment. The migrated neutrophil were lysed and detected. The percentages of neutrophil migration were assessed and presented with Chemotaxis Index (CI) value. That is to say, CI=(intensityRISE P-8−intensityHBSS)/(intensityCXCL8−intensityHBSS)×100%.

IL-8 in PC9GR = assay: IL-8 protein expression in 3D (suspended) culture; type: cell-based, human; settings: RISE P-8 200 ng/ml, 24 hrs, 2D vs suspended
Protocol: (§2) Cells underwent serum-free 16-18 hr and suspended into 10^6 cells/mL in growth medium. 2×10^6 cells/well were seeded in coating/non-coating 6 well plates and treated with/without RISE P-8 (200 ng/ml) for 24 hrs.

IL-8 in PC9 = assay: IL-8 protein expression in 3D (suspended) culture; type: cell-based, human; settings: PC9, RISE P-8 200 ng/ml, 24 hrs, 2D vs suspended
Protocol: as §2

HCC827GR [3] = assay: Colony formation assay; type: cell-based, human; settings: RISE P-8 200 ng/mL with Gefitinib 5 μM, vs control group and IL-8 group
Protocol: (§3) The colony formation assay was also performed to evaluate cell proliferation.

PC9GR [4] = assay: Colony formation assay; type: cell-based, human; settings: RISE P-8 200 ng/mL with Gefitinib 5 μM, vs control group and IL-8 group
Protocol: as §3

HCC827GR [5] = assay: Matrigel transwell invasion assay; type: cell-based, human
Protocol: (§4) The invasion ability of cell was performed by using 8 μm pore size transwell (Corning FluoroBlok™). The transwell insert was coated with 60 μl matrigel (300 μg/ml in serum-free medium, BD Bioscience) overnight at 37° C. in 5% CO2 atmosphere. 2.5×10^4 cells in 0.2 mL of serum-free growth medium were seeded into the upper chamber coated with matrigel and then treated with drugs IL-8 (100 ng/ml) with/without RISE P-8 (200 ng/ml). After incubation for 24 hrs at 37° C. in 5% CO2, membrane of upper chamber was fixed with methanol and stained with propidium iodide (PI). The invasive cells in the bottom of membrane were imaged and counted by using an inverted fluorescence microscope (Observer.Z1, Zeiss) in five random fields of each specimen (magnification, ×100).

PC9GR [6] = assay: Matrigel transwell invasion assay; type: cell-based, human
Protocol: as §4

[7] = test system: LL/2 cells (Lewis lung carcinoma); assay: Matrigel transwell invasion assay; type: cell-based, mouse; settings: RISE P-8 200 ng/ml, 24 hr
Protocol: Lewis lung carcinoma (LL/2) is a cell line established from the lung of a C57BL mouse bearing a tumor resulting from an implantation of primary Lewis lung carcinoma.
Please refer to FIG. 13A and FIG. 13B, the present invention also represented invasion of LL/2 cells (Louis lung carcinoma) treated with CXCL8, MIP-2 or RISE P-8. The character of LL/2 cancer cell is very prone to invasion into lung and grows rapidly. The LL/2 cells were seeded onto Matrigel-coated polycarbonate filters to analyze their invasive potentials. The cells were then incubated for 24 hr in chambers and were analyzed by staining PI and counted under a microscope. Representative fields of invasive cells on the transwell membrane (at 100× magnification) and the invasion rate were shown. The LL/2 cells treated with CXCL8 (100 ng/ml), RISE P-8 (200 ng/ml), or MIP-2 (50 ng/ml) respectively. […] MIP-2 is the CXCL8 homologues in murine.

[8] = IL-8 100 ng/mL + RISE P-8 200 ng/mL vs IL-8 group
[9] = RISE P-8 200 ng/mL, Gefitinib 5 μM, 24 hrs, vs control group

Row | Molecule | IL-8, CXCR1 and CXCR2 mRNA expression ([1]; 5 μM Gefitinib, 24 hrs) | CXCR1 and CXCR2 mRNA expression ([1]; gefitinib 5 μM, 24 hours) | IL-8 mRNA expression ([1]; gefitinib 5 μM, 24 hours) | IL-8, CXCR1 and CXCR2 mRNA expression [2] | neutrophil chemotaxis (Chemotaxis Index) (human neutrophil) | IL-8 protein expression (autocrine secretion) (IL-8 in PC9GR) | IL-8 protein expression (autocrine secretion) (IL-8 in PC9) | colony formation rate (HCC827GR [3]) | colony formation rate (PC9GR [4]) | invasion rate, IL-8 stimulated (HCC827GR [5]; [8]) | invasion rate (HCC827GR [5]; [9]) | invasion rate, IL-8 stimulated (PC9GR [6]; [8]) | invasion rate (PC9GR [6]; [9]) | invasion rate, CXCL8 stimulated ([7]; LL/2, CXCL8 100 ng/ml) | number of invasive cells, MIP-2 induced ([7]; LL/2, MIP-2 50 ng/ml)
1 | COc1cc2ncnc(Nc3ccc(F)c(Cl)c3)c2cc1OCCCN1CCOCC1 [Gefitinib] | significantly enhanced | increased | increased | significantly enhanced |  |  |  |  |  |  |  |  |  |  | 
2 | RISE P-8: chemokine analogue peptide, SEQ ID NO: 1; analogous protein of CXCL8 (IL-8), antagonist of CXCR1 and CXCR2 (protein, RISE P-8, analogous protein of CXCL8 (IL-8), antagonist of CXCR1 and CXCR2) GSKELRCQCIRSYSKPFHPKFIKELRVIPASQFCANTEIIVKLSDGRELCLDPKENWVQRVVEKFLKRAENS |  |  |  |  | effectively antagonize neutrophil response to CXCL8 | significantly attenuate IL-8 autocrine only in suspended culture | significantly attenuate IL-8 autocrine only in suspended culture | slow down significantly | slow down significantly | prevent significantly invasion rate | decreases invasion rate | prevent significantly invasion rate | decreases invasion rate | significantly suppressed CXCL8 stimulated cell invasion | significantly decreased the number of invasive cells
